# Numbering of substitutions follows the chain as printed. Numbers in names are those of the source.
# T1: 15N-PEX14(16–80W) (human, UniProt O75381 16-80, 15N-labelled)
# T1 chain: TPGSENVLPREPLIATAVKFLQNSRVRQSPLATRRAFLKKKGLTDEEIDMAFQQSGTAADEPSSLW
# B1: GST-PEX14-NTD (domain or fragment)
# chain: MASSEQAEQPSQPSSTPGSENVLPREPLIATAVKFLQNSRVRQSPLATRRAFLKKKGLTDEEIDMAFQQSGTAADEPSSL
# B2: His-PEX14-NTD (domain or fragment)
# chain: B1 chain
# B3: GST-PEX14-NTD K56A (domain or fragment)
# chain: MASSEQAEQPSQPSSTPGSENVLPREPLIATAVKFLQNSRVRQSPLATRRAFLKKAGLTDEEIDMAFQQSGTAADEPS
# B4: GST-PEX14-NTD K54A (domain or fragment)
# chain: B3 chain with K54A, A56K
# B5: GST-PEX14-NTD F52A/K56A (domain or fragment)
# chain: B3 chain with F52A
# B6: GST-PEX14-NTD F52A (domain or fragment)
# chain: TPGSENVLPREPLIATAVKFLQNSRVRQSPLATRRAALKKKGLTDEEIDMAFQQSGTAADEPSSL
# B7: PEX14-NTD (as used in ITC) (domain or fragment)
# chain: B6 chain with A37F
# Key:
# [1] = target: full-length His6-TEV-PEX5S (human, UniProt P50542-2 1-602); assay: ELISA
# [2] = target: T1, 15N-PEX14(16–80W); assay: NMR titration
# [3] = target: microtubules / purified porcine brain tubulin (porcine); assay: ELISA
# [4] = target: T1, 15N-PEX14(16–80W); assay: NMR titration
# [5] = target: ß-tubulin(388–444) (human, UniProt P07437 388-444); assay: ITC
# Chain of ß-tubulin(388–444) (P07437 388-444): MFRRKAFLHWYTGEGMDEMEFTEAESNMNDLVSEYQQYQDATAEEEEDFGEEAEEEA
binder,measurement,setting,value
B1,Kd,[1],~0.5 nM
B2,Kd,[1],~1.3 nM
ALSENWAQEFLAAGDA [WAQEF peptide],binding result,[2],binds
B3,Kd,[3],12.5 ± 1.3 nM
B4,Kd,[3],3.9 ± 0.2 nM
B5,Kd,[3],89 ± 17 nM
RKAFLHWYTGEGMDE [FLHWY peptide],Kd,[4],~282000 nM
MNDLVSEYQQYQDAT [LVSEY peptide],Kd,[4],~5000 nM
B6,Kd,[3],39 ± 7.4 nM
B7,stoichiometry N,[5],2

# From doi:10.1101/2020.07.23.218024 (bioRxiv, 2020)
